Test results as given in US9382311.

Target: T1, YU2 gp120 (HIV-1, UniProt P35961 32-498)
T1 construct: domain: gp120
Test: ELISA (FIG. 3)

B1: VRC-PG-04 (antibody, V domains shown)
VH: QVQLVQSGSGVKKPGASVRVSCWTSEDIFERTELIHWVRQAPGQGLEWIGWVKTVTGAVNFGSPDFRQRVSLTRDRDLFTAHMDIRGLTQGDTATYFCARQKFYTGGQGWYFDLWGRGTLIVVSS
VL: EIVLTQSPGTLSLSPGETASLSCTAASYGHMTWYQKKPGQPPKLLIFATSKRASGIPDRFSGSQFGKQYTLTITRMEPEDFARYYCQQLEFFGQGTRLEIR
notes: also called PGV04
  binding result: binds
